Source: publication PMC2148147 (The Journal of Cell Biology, 1998)

T1: Cdc3p (S. cerevisiae, UniProt P32457 1-520)
T1 sequence: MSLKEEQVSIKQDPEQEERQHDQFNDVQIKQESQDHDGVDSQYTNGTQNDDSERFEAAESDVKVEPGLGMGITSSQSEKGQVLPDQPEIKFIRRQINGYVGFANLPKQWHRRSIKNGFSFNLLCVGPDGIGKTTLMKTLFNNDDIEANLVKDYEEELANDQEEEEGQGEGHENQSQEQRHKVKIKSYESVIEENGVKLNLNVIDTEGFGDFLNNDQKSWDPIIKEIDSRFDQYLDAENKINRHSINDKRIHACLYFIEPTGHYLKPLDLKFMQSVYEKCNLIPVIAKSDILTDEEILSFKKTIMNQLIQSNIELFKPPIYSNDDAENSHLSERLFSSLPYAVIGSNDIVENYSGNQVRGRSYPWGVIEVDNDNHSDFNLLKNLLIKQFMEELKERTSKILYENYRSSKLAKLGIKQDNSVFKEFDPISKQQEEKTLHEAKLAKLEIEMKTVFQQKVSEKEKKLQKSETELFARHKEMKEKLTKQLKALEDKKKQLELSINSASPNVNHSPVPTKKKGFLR


Biological target: T1, Cdc3p
Experiment: SEC + other: sucrose gradient sedimentation

Binder	stoichiometry N
Cdc10p (natural protein) MDPLSSVQPASYVGFDTITNQIEHRLLKKGFQFNIMVVGQSGLGKSTLINTLFASHLIDSATGDDISALPVTKTTEMKISTHTLVEDRVRLNINVIDTPGFGDFIDNSKAWEPIVKYIKEQHSQYLRKELTAQRERFITDTRVHAILYFLQPNGKELSRLDVEALKRLTEIANVIPVIGKSDTLTLDERTEFRELIQNEFEKYNFKIYPYDSEELTDEELELNRSVRSIIPFAVVGSENEIEINGETFRGRKTRWSAINVEDINQCDFVYLREFLIRTHLQDLIETTSYIHYEGFRARQLIALKENANSRSSAHMSSNAIQR	~1 Cdc10p per Cdc3p (2:2)
Cdc11p (natural protein) MSGIIDASSALRKRKHLKRGITFTVMIVGQSGSGRSTFINTLCGQQVVDTSTTILLPTDTSTEIDLQLREETVELEDDEGVKIQLNIIDTPGFGDSLDNSPSFEIISDYIRHQYDEILLEESRVRRNPRFKDGRVHCCLYLINPTGHGLKEIDVEFIRQLGSLVNIIPVISKSDSLTRDELKLNKKLIMEDIDRWNLPIYNFPFDEDEISDEDYETNMYLRTLLPFAIIGSNEVYEMGGDVGTIRGRKYPWGILDVEDSSISDFVILRNALLISHLHDLKNYTHEILYERYRTEALSGESVAAESIRPNLTKLNGSSSSSTTTRRNTNPFKQSNNINNDVLNPASDMHGQSTGENNETYMTREEQIRLEEERLKAFEERVQQELLLKRQELLQREKELREIEARLEKEAKIKQEE	~0.5 Cdc11p per Cdc3p (1:2)
Cdc12p (natural protein) MSAATATAAPVPPPVGISNLPNQRYKIVNEEGGTFTVMLCGESGLGKTTFINTLFQTVLKRADGQQHRQEPIRKTVEIDITRALLEEKHFELRVNVIDTPGFGDNVNNNKAWQPLVDFIDDQHDSYMRQEQQPYRTKKFDLRVHAVLYFIRPTGHGLKPIDIETMKRLSTRANLIPVIAKADTLTAQELQQFKSRIRQVIEAQEIRIFTPPLDADSKEDAKSGSNPDSAAVEHARQLIEAMPFAIVGSEKKFDNGQGTQVVARKYPWGLVEIENDSHCDFRKLRALLLRTYLLDLISTTQEMHYETYRRLRLEGHENTGEGNEDFTLPAIAPARKLSHNPRYKEEENALKKYFTDQVKAEEQRFRQWEQNIVNERIRLNGDLEEIQGKVKKLEEQVKSLQVKKSHLK	~1 Cdc12p per Cdc3p (2:2)
